# In PMC10410066:
# Target: inhibitor of nuclear factor kappa B kinase subunit beta (IKBKB), FLAG-tagged (UniProt O14920)
# Experiment: TR-FRET protein-protein interaction assay (2B7-Tb/anti-FLAG-D2)
# Conditions: peak of the lysate titration curve (mutant peak at about 3 ug/well, WT peak at about 5 ug/well); HEK293T lysates; parent: est. 0.30; read off a plot
substance,measurement,value
N571 Q55 HTT (N-terminal huntingtin fragment 1-571 with 55 glutamines) S13A; S16A,response (Fluorescence Ratio (665/615)),0.26
